Our source for the Kd and stoichiometry N (CPC LM dimer per NCP) values is article PMC6891087.

The target of data set [1] is unmodified nucleosome core particle (human | Xenopus laevis) (UniProt P04908). Kind of data set: SPR; biotinylated NCPs immobilised (~500 RU) on a streptavidin chip, BIAcore T200; analytes 7.8 to 1,000 nM; 8°C; 25 mM Hepes, 250 mM NaCl, 1 mM DTT, 0.05% Tween-20, pH 8; steady-state 1:1 fit.
The test system of another data set is Sumo-Borealin189-206. Kind of data set: SPR. As to conditions: apparent, from normalized response; SPR: 25 mM Hepes pH 8, 250 mM NaCl, 1 mM DTT, 0.05% Tween-20, 8 C; EMSA: 10 mM Tris pH 7.5, 100 mM NaCl, 1 mM MgCl2, 1 mM DTT, 1% glycerol, 0.1 mg/ml BSA, 20 nM. Background: A gel shift assay detects complexes by their altered migration in electrophoresis.
A further data set relates to Sumo-Borealin110-206. Kind of data set: SPR. The following applies: apparent, from normalized response; SPR: 25 mM Hepes pH 8, 250 mM NaCl, 1 mM DTT, 0.05% Tween-20, 8 C; EMSA: 10 mM Tris pH 7.5, 100 mM NaCl, 1 mM MgCl2, 1 mM DTT, 1% glycerol, 0.1 mg/ml BSA, 20 nM.
For the next data set, the system named is CPC_LM BOR delta-loop. Kind of data set: SPR. As to conditions: apparent, from normalized response; >=20 in review history; SPR: 25 mM Hepes pH 8, 250 mM NaCl, 1 mM DTT, 0.05% Tween-20, 8 C; EMSA: 10 mM Tris pH 7.5, 100 mM NaCl, 1 mM MgCl2, 1 mM DTT, 1% glycerol, 0.1 mg/ml BSA, 20 nM.
Another data set relates to Sumo-Borealin110-188. Description: SPR. As to conditions: apparent, from normalized response; SPR: 25 mM Hepes pH 8, 250 mM NaCl, 1 mM DTT, 0.05% Tween-20, 8 C; EMSA: 10 mM Tris pH 7.5, 100 mM NaCl, 1 mM MgCl2, 1 mM DTT, 1% glycerol, 0.1 mg/ml BSA, 20 nM.
Data set [2] relates to CPC_LM (Borealin-Survivin-INCENP1-58). Description: SPR. As to conditions: SPR: 25 mM Hepes pH 8, 250 mM NaCl, 1 mM DTT, 0.05% Tween-20, 8 C, EMSA: 10 mM Tris pH 7.5, 100 mM NaCl, 1 mM MgCl2, 1 mM DTT, 1% glycerol, 0.1 mg/ml BSA, 20 nM.
A further data set has as its system CPC_LM BOR K12/R17/K20E. Kind of data set: SPR. As to conditions: SPR: 25 mM Hepes pH 8, 250 mM NaCl, 1 mM DTT, 0.05% Tween-20, 8 C, EMSA: 10 mM Tris pH 7.5, 100 mM NaCl, 1 mM MgCl2, 1 mM DTT, 1% glycerol, 0.1 mg/ml BSA, 20 nM.
Another data set relates to CPC_LM delta189-206. Description: SPR. The following applies: SPR: 25 mM Hepes pH 8, 250 mM NaCl, 1 mM DTT, 0.05% Tween-20, 8 C; EMSA: 10 mM Tris pH 7.5, 100 mM NaCl, 1 mM MgCl2, 1 mM DTT, 1% glycerol, 0.1 mg/ml BSA, 20 nM.
The subject of a further data set is CPC_LM BOR K198/T199E. Kind of data set: SPR. The following applies: SPR: 25 mM Hepes pH 8, 250 mM NaCl, 1 mM DTT, 0.05% Tween-20, 8 C; EMSA: 10 mM Tris pH 7.5, 100 mM NaCl, 1 mM MgCl2, 1 mM DTT, 1% glycerol, 0.1 mg/ml BSA, 20 nM.
In another data set the test system is CPC_LM BOR 10-end. Kind of data set: SPR. The following applies: SPR: 25 mM Hepes pH 8, 250 mM NaCl, 1 mM DTT, 0.05% Tween-20, 8 C; EMSA: 10 mM Tris pH 7.5, 100 mM NaCl, 1 mM MgCl2, 1 mM DTT, 1% glycerol, 0.1 mg/ml BSA, 20 nM.
The subject of the next data set is CPC_LM delta110-188. Kind of data set: SPR. As to conditions: SPR: 25 mM Hepes pH 8, 250 mM NaCl, 1 mM DTT, 0.05% Tween-20, 8 C; EMSA: 10 mM Tris pH 7.5, 100 mM NaCl, 1 mM MgCl2, 1 mM DTT, 1% glycerol, 0.1 mg/ml BSA, 20 nM.
Data set [3] addresses nucleosome core particle with histone H3 phosphorylated at Thr3 (human | not stated | Xenopus laevis) (UniProt P04908). Kind of data set: SPR; biotinylated NCPs immobilised (~500 RU) on a streptavidin chip, BIAcore T200; analytes 7.8 to 1,000 nM; 8°C; 25 mM Hepes, 250 mM NaCl, 1 mM DTT, 0.05% Tween-20, pH 8; steady-state 1:1 fit. A general note: Surface plasmon resonance follows binding to a sensor surface in real time, without labels.

Where [4] appears, read: histone H3 phospho-T3 (native chemical ligation; C110A, residue 32 C).

On to “CPC_LM containing Borealin lacking the N-terminal half of the loop (residues 110-188) (from UniProt Q53HL2 1-280; O15392 1-142; Q9NQS7 1-58) (complex)”, for which the Kd in data set [1] stood at 1800 nM.

On to DNA (SPR ligand; presumably 601), for which the Kd is 20 µM with Sumo-Borealin189-206; 5 µM with Sumo-Borealin110-206; 20 µM in the data set with CPC_LM BOR delta-loop; 10 µM with Sumo-Borealin110-188; 5000 nM in data set [2] (apparent, from normalized response, >=5 in review history).

Consider “CPC_LM containing Borealin 10-end (from UniProt Q53HL2 10-280; O15392 1-142; Q9NQS7 1-58) (complex)”, for which, in [1], the Kd was 860 nM.

Turning to H3T3ph NCP (601), the Kd was found to be 103 nM in [2] (setting [4]) and 672 nM in the data set on CPC_LM BOR K12/R17/K20E (setting [4]).

Regarding unmodified NCP (601), the Kd in the data set with CPC_LM delta189-206 was determined as 260 nM; in the data set on CPC_LM BOR K198/T199E, 400 nM; with CPC_LM BOR 10-end, 860 nM; in [2], 295 nM; in the data set with CPC_LM BOR K12/R17/K20E, 528 nM; with CPC_LM delta110-188 it was 1800 nM.

As to “CPC_LM containing Borealin lacking the C-terminal half of the loop (residues 189-206) (from UniProt Q53HL2 1-280; O15392 1-142; Q9NQS7 1-58) (complex)”, in data set [1], the Kd turned out to be 260 nM.

The substance “CPC_LM containing Borealin K12/R17/K20E (from UniProt Q53HL2 1-280; O15392 1-142; Q9NQS7 1-58) (complex)” displayed a Kd in data set [1] of 528 nM.

“CPC localization module (Borealin-Survivin-INCENP 1-58) (from UniProt Q53HL2 1-280; O15392 1-142; Q9NQS7 1-58) (complex)” registered a Kd in [3] of 103 nM. Besides, in data set [1], the Kd worked out at 295 nM and the stoichiometry N (CPC LM dimer per NCP) turned out to be 1.
